Measurements taken from patent US20240270853A1 (Chugai, published 2024).

What was measured:
[1] = target: T1, Recombinant mouse DDR2 ECD-Fc (R&D systems, Cat. No. 7479-DR-050) (mouse, UniProt Q62371 22-399, biotinylated); test: Octet tandem binning on captured mouse DDR2 ECD-Fc; competitor Ab1 (bound first) DAB0060
T1 construct: Bought protein; not shown: Fc part of the bought fusion protein, not described
T1 sequence: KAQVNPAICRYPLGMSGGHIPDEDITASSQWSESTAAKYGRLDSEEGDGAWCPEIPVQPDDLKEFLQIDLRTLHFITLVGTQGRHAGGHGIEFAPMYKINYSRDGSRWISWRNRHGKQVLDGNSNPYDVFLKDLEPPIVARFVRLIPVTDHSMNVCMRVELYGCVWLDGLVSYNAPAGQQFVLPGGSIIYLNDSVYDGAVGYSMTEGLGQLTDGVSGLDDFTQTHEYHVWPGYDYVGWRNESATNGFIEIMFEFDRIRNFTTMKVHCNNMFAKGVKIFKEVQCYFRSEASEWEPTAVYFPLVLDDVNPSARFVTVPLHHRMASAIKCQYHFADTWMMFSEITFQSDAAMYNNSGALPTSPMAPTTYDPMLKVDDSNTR
Method: (§1) Competitive epitope binning experiment was performed by real-time binding assay using Octet (Pall ForteBio). Recombinant mouse DDR2 ECD-Fc (R&D systems, Cat. No. 7479-DR-050) was biotinylated and captured onto streptavidin biosensor tips (Pall ForteBio) as antigen. The antigen captured tips were dipped into 15 or 40 microgram (micro g)/mL of a first set of antibodies for 300 seconds. Then the tips were incubated with 15 or 40 micro g/mL of a second set of antibodies for 300 seconds. To eliminate an effect of antibody dissociation, the antibody concentration in the second set was the same with that of the first set. Result was analyzed by DATA Analysis HT software (Pall ForteBio, Version 10.0.1.7).
(§2) In Table 3, “Abl” indicates antibody in the first set and “Ab2” indicates antibody in the second set.

[2] = target: T1, Recombinant mouse DDR2 ECD-Fc (R&D …); test: Octet tandem binning on captured mouse DDR2 ECD-Fc; competitor Ab1 (bound first) DAB0045
Method: as §1, §2

[3] = target: T1, Recombinant mouse DDR2 ECD-Fc (R&D …); test: Octet tandem binning on captured mouse DDR2 ECD-Fc; competitor Ab1 (bound first) DAB0048
Method: as §1, §2

[4] = target: T1, Recombinant mouse DDR2 ECD-Fc (R&D …); test: Octet tandem binning on captured mouse DDR2 ECD-Fc; competitor Ab1 (bound first) DAB0093
Method: as §1, §2

[5] = target: T1, Recombinant mouse DDR2 ECD-Fc (R&D …); test: Octet tandem binning on captured mouse DDR2 ECD-Fc; competitor Ab1 (bound first) DAB0069
Method: as §1, §2

[6] = target: T1, Recombinant mouse DDR2 ECD-Fc (R&D …); test: Octet tandem binning on captured mouse DDR2 ECD-Fc; competitor Ab1 (bound first) DAB0065
Method: as §1, §2

[7] = target: T1, Recombinant mouse DDR2 ECD-Fc (R&D …); test: Octet tandem binning on captured mouse DDR2 ECD-Fc; competitor Ab1 (bound first) DAB0094
Method: as §1, §2

Binder | Octet response of Ab2 [1] | Octet response of Ab2 [2] | Octet response of Ab2 [3] | Octet response of Ab2 [4] | Octet response of Ab2 [5] | Octet response of Ab2 [6] | Octet response of Ab2 [7]
DAB0069 (antibody, V domains shown, Variable regions from immunized rabbits) VH: QSLEESGGRLVTPGTPLTLTCTASGFSLSNYYMQWVRQAPGKGLEWIGIVYPGSSAYYANWAKGRFTISKTSTTVDLKMTSLTTEDTATYFCAGSSNSVYSFNLWGQGTLVTVSS VL: AYDMTQTPSSVSAAVGGTVTIKCQASESIYRSLAWYQQKPGQPPKLLIYSASTLTSGVSSRFKGSGSGTEFTLTISDLECADAGTYYCQQGGSFSNIVNTFGGGTKVEIK | 1.35 | 0.0335 | 1.57 | 1.5 | 0 | -0.0058 | –
DAB0048 (antibody, V domains shown, Variable regions from immunized rabbits) VH: QSVEESGGRLITPGTPLTLTCTASGFSLSIYYMIWVRQAPGKGLEWIGYIWSGSTTDYASWAKGRFTISKTSTTVDLKITSPTTEDTATYFCARVYAGYGYGSDLWGQGTLVTVSS VL: AAVLTQTPSPVSAAVGGTVSISCQSSQSVYNNNWLAWYQQKPGQPPKLLIYSASTLASGVPSRFKGSGSGTQFTLTISDVQCDDAATYYCAGGYSTNSDKNAFGGGTKVEIK | 1.31 | 1.32 | 0 | -0.0129 | 1.47 | 1.49 | 1.5
DAB0094 (antibody, V domains shown, Variable regions from immunized rabbits) VH: QSVEESGGRLVTPGTPLTLTCTVSGFSLSSYSVAWVRQAPGKGLEWIGYISYSGSTYYASWVNGRFTISKTSTTVDLKMTSLTASDTATYFCARDPGYSRDLWGQGTLVTVSS VL: DVVMTQTPSSVSEPVGGTVTIKCQASQSIGSYLSWYQQKPGQPPKLLIYRASTLASGVSSRFKGSGSGTEFTLTINGLECADAAIYYCQSSYVGVSHGSFGGGTKVEIK | 0.0985 | 1.22 | 1.42 | 1.48 | 1.3 | 1.37 | 0
DAB0065 (antibody, V domains shown, Variable regions from immunized rabbits) VH: QSVEESGGRLVTPGTPLTLTCTVSGFSLSTSAMSWVRQAPGKGLEWIGMITYGGSGSTWYASWANGRFTISKTSTTVTLKMTSPTTEDTASYFCARVYGTIGSNFYSIYSFNLWGQGTLVTVSS VL: AAVLTQTPSPVSAAVGGTVSISCQSSKSVYNSNYLSWYQQKPGQPPKLLIYYTSALASGVSSRFKGSGSGTRFTLTISDVQCDDAATYYCAGGYSSSSDNGFGGGTKVEIK | 1.51 | 0.0398 | 1.65 | 1.66 | 0.0322 | 0 | 1.55
DAB0045 (antibody, V domains shown, Variable regions from immunized rabbits) VH: QSVEESGGRLVTPGTPLTLTCTVSGFSLSSYSMGWVRQAPGKGLEYIGVINTSDSAYYASWAKGRFTISRTSTTVDLKMTSLTTEDTATYFCARAIGYYGSGWGACYFNLWGQGTLVTVSS VL: AIKMTQTPSSVSAAVGGTVTVNCQASEDIKSYLAWYQQKPGQPPKLLIYSASTLASGVSSRFKGSGSGTQFTLTISDLECADAATYYCQSYYGTSTTGEYNAFGGGTKVEIK | 1.09 | 0 | 1.2 | 1.13 | -0.001 | -0.0102 | 1.07
DAB0060 (antibody, V domains shown, Variable regions from immunized rabbits) VH: QSVEESGGRLVTPGTALTLTCTASGFSLSSYDMSWVRQAPGEGLEWIGTIFTEGSTSCASWVKGRFTISRTSTTVDLKITSPTTEDTATYFCVRGTTSNRLWGQGTLVTVSS VL: DVVMTQTPASVEAVVGATVTIRCQASESITNYLSWYQQKPGQPPKVLIYYASTLESGVPSRFKGSGSGTQFTLTISDLECADAATYYCQSNYFSSSYSYGNTFGGGTKVEIK | 0 | 0.591 | 0.82 | 0.857 | 0.615 | 0.766 | -0.054
